# Reference: patent US5767078A, “Agonist peptide dimers” (priority 1995, dated 1998)
# Like-named read-outs stand apart in the source and are kept apart here. Bridge positions count the residues as written; N and C are the ends. Ends that are not written are not given here. Peptide text beside a SMILES is read from it.
# Columns and labels:
# [1] = biological target: T1, truncated human EPO receptor (Homo sapiens, UniProt P19235); experiment: EPO dependent cell proliferation assay, FDC-P1/trER cells; type: cell-based; conditions: for EC50: read-out: EPO-ED50 truncated human receptor; for change in potency of dimer versus parent monomer (in parentheses), truncated human receptor: ratio of ED50 values
# T1 construct: expressed in transfected cells; host or cells: FDC-P1/trER cells (murine FDC-P1 derived)
# T1 sequence (P19235 25-468 limits assumed): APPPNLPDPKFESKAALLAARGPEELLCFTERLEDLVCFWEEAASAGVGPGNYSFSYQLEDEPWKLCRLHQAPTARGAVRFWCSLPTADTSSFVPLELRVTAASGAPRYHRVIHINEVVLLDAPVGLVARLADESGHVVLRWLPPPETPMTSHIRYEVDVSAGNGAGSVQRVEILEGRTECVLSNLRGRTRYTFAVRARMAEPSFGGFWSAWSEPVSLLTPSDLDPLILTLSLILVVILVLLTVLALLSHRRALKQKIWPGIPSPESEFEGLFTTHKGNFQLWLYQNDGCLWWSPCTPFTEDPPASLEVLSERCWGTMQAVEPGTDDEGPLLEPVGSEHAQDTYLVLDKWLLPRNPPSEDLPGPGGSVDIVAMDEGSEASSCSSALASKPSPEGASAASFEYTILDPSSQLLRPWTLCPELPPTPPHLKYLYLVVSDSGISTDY
# Description: (§1) After 24 hours, the cells were counted, resuspended at 800,000 cells/ml and dispensed at 40,000 cells/well. Stock solutions of the peptide dimer (5 mM in PBS) and peptide (10 mM in DMSO) were prepared and dispensed in triplicate to final concentrations of 1×10^-10 M through 1×10^-5 M and adjusted to a final volume of 0.2 ml. […] After a 42 hr incubation at 37° C. (ca. 2 cell doublings) 1 μCi/well of [^3 H] thymidine was added and the incubation continued for 6 hr at which time the cells were harvested and counted to assess [^3 H]thymidine incorporation as a measure of cell proliferation.
# murine EPO receptor = biological target: T2, murine EPO receptor (Mus musculus, UniProt P14753); experiment: EPO dependent cell proliferation assay, FDC-P1/ER cells; type: cell-based; conditions: for EPO-ED50 murine receptor / change in potency of dimer versus parent monomer (in parentheses), murine receptor: FDC-P1/ER; for EPO-ED50 murine receptor: [3H]thymidine incorporation, amount giving half of maximal activity obtained with EPO; for change in potency of dimer versus parent monomer (in parentheses), murine receptor: ratio of ED50 values
# T2 construct: expressed in transfected cells; host or cells: FDC-P1/ER cells
# T2 sequence (P14753 25-507): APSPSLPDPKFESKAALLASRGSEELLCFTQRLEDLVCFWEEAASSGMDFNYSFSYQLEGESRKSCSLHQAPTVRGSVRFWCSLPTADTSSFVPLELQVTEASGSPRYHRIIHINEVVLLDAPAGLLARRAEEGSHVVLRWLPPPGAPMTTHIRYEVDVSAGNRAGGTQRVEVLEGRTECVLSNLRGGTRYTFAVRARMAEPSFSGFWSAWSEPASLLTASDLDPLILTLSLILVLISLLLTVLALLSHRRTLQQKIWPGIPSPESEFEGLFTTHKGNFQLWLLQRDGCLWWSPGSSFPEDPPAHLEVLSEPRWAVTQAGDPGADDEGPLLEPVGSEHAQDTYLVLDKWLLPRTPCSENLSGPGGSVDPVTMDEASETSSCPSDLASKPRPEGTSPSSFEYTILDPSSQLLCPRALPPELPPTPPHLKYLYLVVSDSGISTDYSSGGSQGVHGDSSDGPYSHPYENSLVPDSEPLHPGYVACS
# Description: as §1
# [2] = biological target: T3, extracellular domain of the human erythropoietin receptor (EPO binding protein, EBP) (Homo sapiens, UniProt P19235); experiment: Immobilized EBP based [125I]EPO competition binding assay; conditions: for Relative Binding (binding relative to Seq. I. D. No. 8): IC50 in [125I]EPO competition on EBP beads, relative to Seq. I. D. No. 8 (IC50 5 μM)
# T3 construct: made in house; host or cells: E. coli
# T3 sequence (P19235 25-250 limits assumed): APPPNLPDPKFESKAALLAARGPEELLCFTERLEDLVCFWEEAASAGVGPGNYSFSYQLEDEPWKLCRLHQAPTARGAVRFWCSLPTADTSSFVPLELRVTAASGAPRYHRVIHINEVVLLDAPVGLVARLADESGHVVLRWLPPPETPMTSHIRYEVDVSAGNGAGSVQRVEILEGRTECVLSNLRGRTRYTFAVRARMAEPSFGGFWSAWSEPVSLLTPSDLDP
# Description: The iodoacetyl activation chemistry of Sufolink beads (Pierce Chemical Co, Rockford, Ill.) is specific for free thiols and assures that the linkage is not easily reversible. EBP-Sulfolink beads were made as follows: SulfoLink gel suspension (10 ml) was mixed with of coupling buffer (40 ml: 50 mM Tris, pH 8.3, 5 mM EDTA) and the gel was allowed to settle. […] The mixture was rocked gently for 30 minutes at room temperature and the beads were allowed to settle for 1 hour at room temperature. The supernatant was removed and retained. The beads were washed twice with 20 ml of coupling buffer. The washes were recovered as well. The beads were then treated with 20 ml of 0.05M cysteine for 30 minutes at room temperature to block unbound sites. Finally, the beads were washed with 50 ml of 1M NaCl, then with 30 ml of PBS, and resuspended in 20 ml of PBS and stored at 4° C. The amount of EBP which was covalently bound to the beads was determined by comparing the OD280 of the original EBP solution to the total OD280 recovered in the reaction supernatant and the two 20 ml washes.
# Competitive binding analysis assays of candidate peptides and dimer peptides were performed as outlined below. Individual peptides were dissolved in DMSO to prepare a stock solution […]. Dimer peptides were contained within PBS at a concentration of 5 mM.
# Initial assay points with no added peptide were included in each assay to determine total binding. Binding mixtures were incubated overnight at room temperature with gentle rocking. The beads were then collected using Micro-columns (Isolab, Inc.) and washed with 3 mL of wash buffer. The columns containing the washed beads were placed in 12×75 mm glass tubes and bound radioactivity levels determined in a gamma counter.
# [3] = FDC-P1/trER, [3H]thymidine incorporation, amount giving half of maximal activity obtained with EPO
Compound,EPO-ED50 murine receptor (murine EPO receptor) [nM],"EC50 [1, 3] [nM]",Relative Binding (binding relative to Seq. I. D. No. 8) [2],other results
CC(C)C[C@@H]1NC(=O)[C@@H]2CCCN2C(=O)CNC(=O)[C@H](Cc2ccccc2)NC(=O)[C@H](Cc2c[nH]cn2)NC(=O)[C@@H](NC(=O)[C@H](CO)NC(=O)[C@H](Cc2ccc(O)cc2)NC(=O)[C@@H](NC(=O)CNC(=O)CN)[C@@H](C)O)CSSC[C@@H](C(=O)N[C@@H](CCCCN)C(=O)N2CCC[C@H]2C(=O)N[C@@H](CCC(N)=O)C(=O)NCC(=O)NCC(N)=O)NC(=O)[C@H](C(C)C)NC(=O)[C@H](Cc2c[nH]c3ccccc23)NC(=O)[C@H]([C@@H](C)O)NC1=O [Seq. I. D. No. 8] (H-GGTYSCHFGPLTWVCKPQGG-NH2; disulfide 6-15),,,,EC50 [1]: 90 nM
CC(C)C[C@@H]1NC(=O)[C@@H]2CCCN2C(=O)CNC(=O)[C@H](Cc2ccccc2)NC(=O)[C@H](Cc2c[nH]cn2)NC(=O)[C@@H](NC(=O)[C@@H](N)CO)CSSC[C@@H](C(=O)N[C@@H](CCCCN)C(N)=O)NC(=O)[C@H](C(C)C)NC(=O)[C@H](Cc2c[nH]c3ccccc23)NC(=O)[C@H]([C@@H](C)O)NC1=O [peptide (SEQ ID NO: 18)] (H-SCHFGPLTWVCK-NH2; disulfide 2-11),,,,activity in the in vitro cell proliferation assay (in words) (murine EPO receptor; cell line not given): inactive
Ac-GGTYSCHFGPLTWVCKPQGG (Ac-GGTYSCHFGPLTWVCKPQGG-NH2; disulfide 6-15 (inferred)) [Seq. I. D. No. 20],30,60,4,
GGLYACHMGPMTWVCQPLRG [Seq. I. D. No. 14],100,80,,
"SAP2/Seq. I. D. No. 8 covalent dimer #1: PEG (SPA2, MW ca. 3400) dimer of peptide GGTYSCHFGPLTWVCKPQGG, lot #1, Example 2 (GGTYSCHFGPLTWVCKPQGG-NH2; disulfide 6-15 (inferred); not fully specified)",10,1.5,4,"increase in potency versus parent peptide, murine receptor line (murine EPO receptor): 10 fold; change in potency of dimer versus parent monomer (in parentheses), murine receptor (murine EPO receptor): 10 X; ED50, cell line containing the murine EPO receptor (murine EPO receptor; text of Example 11): 10 nM; increase in potency versus parent peptide, human receptor line [1]: ~60 fold; change in potency of dimer versus parent monomer (in parentheses), truncated human receptor ([1]; FDC-P1/trER): 60 X; ED50, cell line containing the human EPO receptor ([1]; text of Example 11): 1.5 nM; IC50 ([2]; concentration reducing [125I]EPO binding to EBP beads by 50%, 0.5 nM [125I]EPO): 20000 nM"
"SAP2/Seq. I. D. No. 8 covalent dimer #2: PEG (SPA2, MW ca. 3400) dimer of peptide GGTYSCHFGPLTWVCKPQGG, lot #2, Example 3 (GGTYSCHFGPLTWVCKPQGG-NH2; disulfide 6-15 (inferred); not fully specified)",10,2,3,"increase in potency versus parent peptide, murine receptor line (murine EPO receptor): 10 fold; change in potency of dimer versus parent monomer (in parentheses), murine receptor (murine EPO receptor): 10 X; increase in potency versus parent peptide, human receptor line [1]: 45 fold; change in potency of dimer versus parent monomer (in parentheses), truncated human receptor ([1]; FDC-P1/trER): 45 X"
"SAP2/Seq. I. D. No. 13 covalent dimer: PEG (SPA2) dimer of peptide GGTYSCHFGPLTWVCKPQ, Example 4 (GGTYSCHFGPLTWVCKPQ-NH2; disulfide 6-15 (inferred); also: PEG (SPA2) covalent dimer)",,2,,"change in potency of dimer versus parent monomer (in parentheses), truncated human receptor ([1]; FDC-P1/trER): 10 X"
"SAP2/Seq. I. D. No. 20 covalent dimer: PEG (SPA2) dimer of peptide Ac-GGTYSCHFGPLTWVCKPQGG, Example 5 (Ac-GGTYSCHFGPLTWVCKPQGG-NH2; disulfide 6-15 (inferred); also: PEG (SPA2) covalent dimer)",200,50,12,"change in potency of dimer versus parent monomer (in parentheses), murine receptor (murine EPO receptor): -7 X"
"dimeric peptide: PEG (SPA2) dimer of peptide SCHFGPLTWVCK (SEQ ID NO: 18), Example 7 (SCHFGPLTWVCK-NH2; disulfide 2-11 (inferred); also: PEG (SPA2) covalent dimer)",,,,"proliferation (cpm) relative to background ([1]; 10^-5 M, human EPO receptor cell line, FIG. 8): twice as many cpm as background"
"mPEG/Seq. I. D. No. 8, peak #1: mono-PEG conjugate of peptide SEQ ID NO: 8 with m-SPA-PEG (MW ca. 5000), one PEG coupled; control (GGTYSCHFGPLTWVCKPQGG-NH2; disulfide 6-15 (inferred); not fully specified; also: one mPEG 5000 (m-SPA-PEG) conjugated, site not given here) [reference compound]",2000,100,60,
"mPEG/Seq. I. D. No. 8, peak #2: conjugate of peptide SEQ ID NO: 8 with m-SPA-PEG (MW ca. 5000), two PEG molecules coupled; control (GGTYSCHFGPLTWVCKPQGG-NH2; disulfide 6-15 (inferred); not fully specified; also: two mPEG 5000 (m-SPA-PEG) conjugated, sites not given here) [reference compound]",1000,400,> 40,
